{"source": "patent US20230159620A1", "about": "“COMPOSITIONS AND METHODS OF TREATMENT FOR VASCULAR DISEASES AND THROMBOSIS” (Washington University, priority 2021, published 2023)", "key": {"[1]": {"target": "Pearl 1ECD (Homo sapiens, UniProt Q5VY43)", "sequence (Q5VY43 21-755 limits assumed)": "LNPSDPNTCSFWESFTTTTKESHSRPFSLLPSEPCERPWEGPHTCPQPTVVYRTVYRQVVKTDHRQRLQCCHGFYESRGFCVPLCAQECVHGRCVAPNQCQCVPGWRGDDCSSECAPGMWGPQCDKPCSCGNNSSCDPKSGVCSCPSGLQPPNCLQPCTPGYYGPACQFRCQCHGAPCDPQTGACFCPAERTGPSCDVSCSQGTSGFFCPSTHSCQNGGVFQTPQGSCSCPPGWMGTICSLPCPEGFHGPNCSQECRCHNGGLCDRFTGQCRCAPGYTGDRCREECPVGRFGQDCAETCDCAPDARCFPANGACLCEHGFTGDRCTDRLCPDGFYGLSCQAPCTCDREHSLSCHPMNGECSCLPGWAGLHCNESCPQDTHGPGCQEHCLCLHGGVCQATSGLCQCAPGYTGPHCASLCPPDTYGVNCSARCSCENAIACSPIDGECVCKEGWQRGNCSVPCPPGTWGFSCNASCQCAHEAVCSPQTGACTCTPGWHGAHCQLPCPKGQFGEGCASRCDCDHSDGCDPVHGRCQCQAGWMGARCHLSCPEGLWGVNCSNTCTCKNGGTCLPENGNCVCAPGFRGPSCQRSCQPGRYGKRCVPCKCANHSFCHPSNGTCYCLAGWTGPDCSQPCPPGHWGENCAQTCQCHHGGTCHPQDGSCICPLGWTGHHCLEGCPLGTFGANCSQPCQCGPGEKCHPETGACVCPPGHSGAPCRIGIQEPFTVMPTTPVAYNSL", "conditions": "pulldown assays", "description": "The assay buffer consisted of lmg/mL BSA, 0.01% Tween 20, and 10 mM Ca^2+ in PBS. The proteins were incubated together for two hours while rotating. Where indicated, 2 μg primary antibodies were added during the final 30 minutes of the initial incubation. Following the incubation, aliquots were reserved as the input fraction. Subsequently, 6-10 μL slurry of Pierce Anti-c-Myc Magnetic Beads, Invitrogen Dynabeads Protein G beads, or Pierce Streptavidin Magnetic Bead slurry were added, followed by a 1-hour incubation at 20° C. with gentle agitation. Beads were washed in PBS +0.01% Tween 20 and resuspended reducing LDS sample buffer and analyzed by immunoblot assay."}, "[2]": {"system": "Human platelets", "conditions": "static conditions, with and without 0.1 U/mL thrombin", "description": "Subsequently, coverslips were blocked with 1% BSA and washed with PBS. Human platelets were isolated from whole blood and re-suspended in Tyrode's buffer. 2×10^7/mL basal or thrombin activated platelets were added to coverslips and incubated at 37° C. for 10, 20, or 30 minutes. After incubation, non-adherent platelets were removed and the coverslips were washed with PBS, fixed with 1.5% paraformaldehyde, permeabilized with 0.01% Triton-X and stained with TRITC phalloidin. Platelets were visualized using fluorescent microscopy. Images of the adhered platelets were captured using fluorescent microscopy and counted manually by a blinded observer."}}}
{"substance": "SVEP1: recombinant murine SVEP1 extracellular matrix protein with Myc and poly-histidine tag, expressed in 293F cells", "values": [{"measurement": "co-immunoprecipitation of Pearl 1ECD with Myc-tagged SVEP1", "setting": "[1]", "value": "co-immunoprecipitates"}, {"measurement": "adherence of platelets to coated coverslips", "setting": "[2]", "value": "adhered"}]}
